Laboratory results as given in publication PMC4072508, “Genome-Wide Prediction and Validation of Peptides That Bind Human Prosurvival Bcl-2 Proteins” (PLoS Computational Biology, 2014).

T1: Bfl-1, Q16548
T1 chain: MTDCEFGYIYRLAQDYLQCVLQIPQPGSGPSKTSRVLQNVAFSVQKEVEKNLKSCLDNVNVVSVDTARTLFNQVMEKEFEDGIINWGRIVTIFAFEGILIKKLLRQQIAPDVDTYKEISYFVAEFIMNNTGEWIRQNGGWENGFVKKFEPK

T2: Mcl-1, Q07820
T2 chain: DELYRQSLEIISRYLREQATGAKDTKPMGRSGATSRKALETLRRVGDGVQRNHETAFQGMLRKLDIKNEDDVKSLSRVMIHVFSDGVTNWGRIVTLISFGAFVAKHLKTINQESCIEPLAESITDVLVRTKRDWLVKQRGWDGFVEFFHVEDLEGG

B1: KCNH1 (peptide)
chain: VHKHSRLAEVDQLGSDILPQYKQEAP
B2: BMF (peptide)
chain: HQAEVQIARKDQCIADQFHRLHVQQH
B3: FOXI1 (peptide)
chain: PDKRLTLSQIYQYVLDNFPFYNKSKA
B4: CYP2A6 (peptide)
chain: MPYMEAVIHEIQRFLDVIPMSLARRV
B5: HEXDC (peptide)
chain: VLELHPGAQRLHIGCDEVYYLGEGEA
B6: DDX4 (peptide)
chain: FSKREKLVEILRNILDERTMVFVETK
B7: SYT1 (peptide)
chain: FVGYNSTGAEDRHWSDMLANPRRPIA
B8: BMF (peptide)
chain: HQAEVQIARKLQCILDQFHRLHVQQH
B9: WDR60 (peptide)
chain: GGRVKLVHSALIQLGDSLSHKGNEFW
B10: SRL (peptide)
chain: GYPFNDVCQWDIDRADLIFVVFDPTK
B11: FUT8 (peptide)
chain: KKLKNLEGNELQRHADEFLLDLGHHE
B12: CRB1 (peptide)
chain: TGSLCEIATTLSFELDGFLWVKSGSV
B13: PRKD3 (peptide)
chain: IQENVDISTVDQIFADEVLGSGQFGI
B14: ZFP90 (peptide)
chain: PSECETLGSNLGHNADLLNENNILAK

These binders were tested against Bcl-xL, Q07817 (assay: peptide SPOT array, c-Myc-tagged receptor at 1 uM or 100 nM, anti-c-Myc-Cy3).
Sequence of Bcl-xL, Q07817 (Q07817 1-209): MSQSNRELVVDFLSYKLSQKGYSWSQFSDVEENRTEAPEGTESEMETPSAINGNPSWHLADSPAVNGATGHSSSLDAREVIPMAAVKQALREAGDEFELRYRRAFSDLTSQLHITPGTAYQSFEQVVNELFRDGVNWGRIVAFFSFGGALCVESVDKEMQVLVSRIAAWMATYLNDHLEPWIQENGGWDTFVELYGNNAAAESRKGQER

Row | SPOT signal as a fraction of Bim BH3's signal on the same receptor and array | Binder
1 | 0.1 | B1
2 | 0.03 | B2
3 | 0.76 | B3
4 | 0.14 | B4
5 | 0.06 | B5
6 | 0.08 | B6
7 | 0.11 | B7
8 | 0.27 | B8
9 | 0.3 | B9
10 | 0.07 | B10
11 | 0.12 | B11
12 | 0.07 | B12
13 | 0.07 | B13
14 | 0.09 | B14

Biological target: T1, Bfl-1, Q16548
Assay: as above

Row | SPOT signal as a fraction of Bim BH3's signal on the same receptor and array | Binder
15 | 0.06 | B1
16 | 0.01 | B2
17 | 0.41 | B3
18 | 0.06 | B4
19 | 0.05 | B5
20 | 0.08 | B6
21 | 0.07 | B7
22 | 0.1 | B8
23 | 0.36 | B9
24 | 0.05 | B10
25 | 0.05 | B11
26 | 0.03 | B12
27 | 0.04 | B13
28 | 0.03 | B14

Biological target: T2, Mcl-1, Q07820
Assay: as above

Row | SPOT signal as a fraction of Bim BH3's signal on the same receptor and array | Binder
29 | 0.13 | B1
30 | 0.01 | B2
31 | 0.39 | B3
32 | 0.08 | B4
33 | 0.05 | B5
34 | 0.15 | B6
35 | 0.08 | B7
36 | 0.1 | B8
37 | 0.34 | B9
38 | 0.06 | B10
39 | 0.05 | B11
40 | 0.04 | B12
41 | 0.03 | B13
42 | 0.04 | B14
